This is an account of results in patent US9428586B2, “Heparanase splice variant” (COMPUGEN LTD, priority 2010, dated 2016).

In one assay the test system is CAG myeloma cells. The assay can be described thus: CAG myeloma tumor xenograft development and immunohistochemistry. It is filed as in vivo, athymic nude mice. Here is the method:
FIG. 5. T5 enhances tumor xenograft development. Control (Vo), heparanase-, and T5-infected CAG myeloma cells were injected subcutaneously (1×10^6/0.1 ml) and tumor volume was calculated (A). At the end of the experiment on day 37, tumors were resected, photographed (A, inset) and weighted (B). C. Immunohistochemical analysis. Paraffin-embedded 5 micron sections were stained with hematoxilin & eosin (left column), anti-CD31 (second left column), and anti-smooth muscle actin (SMA, two right columns) antibodies. Note increased blood vessels density and maturation (recruitment of SMA-positive cells) in xenografts produced by heparanase- and T5-infected cells. Cells from exponential cultures of control-, heparanase-, and T5-infected CAG myeloma cells were detached with trypsin/EDTA, washed with PBS and brought to a concentration of 1×10^7 cells/ml. Cell suspension (1×10 6/0.1 ml) was inoculated subcutaneously at the right flank of 5-weeks old female athymic nude mice (n=7). Xenograft size was determined twice a week by externally measuring tumors in two dimensions using a caliper. At the end of the experiment, mice were sacrificed and xenografts were removed, weighted and fixed in formalin. Paraffin-embedded 5 micron sections were subjected to immunostaining with anti-PECAM-1 (CD31) or anti-smooth muscle actin (1A4, Sigma) antibodies, using the Envision kit, according to the manufacturer's (Dako, Glostrup, Denmark) instructions, as described (Fux, L., et al., 2009, Cancer Res 69, 1758-1767). All animal experiments were approved by the Animal Care Committee of the Technion, Haifa, Israel.

Another assay in a line: Binding to heparin beads. Conditions: lysates of over expressing 293 cells, heparin beads. An excerpt: FIG. 7. […] A. Cell lysates. […] B,C. Peptide analysis. […] C. Enzymatic activity.
The next assay concerns the target Concanavalin A (Canavalia ensiformis, UniProt P02866). To be noted: lysates of over expressing 293 cells. Here is the method:
FIG. 7. […] A. Cell lysates. […] Control (Vo), heparanase and T5 transfected 293 cells were left untreated (−) or incubated with heparin (+, 50 μg/ml) for 20 h under serum-free conditions. […] B,C. Peptide analysis. Peptides corresponding to the heparin binding domain of heparanase (KKDC) or T5 (CKKK) which includes its unique three amino acids (SKK), and control scrambled (Scr) peptide were subjected to gel electrophoresis prior to or following incubation with heparin beads (+Heparin). C. Enzymatic activity.

The subject of another assay is Erk. Description: Erk phosphorylation (immunoblot) in CAG myeloma and 293 cells. It is filed as cell-based, human. Here is the method:
(§1) FIG. 3. T5 augments Src phosphorylation. A. Over expression. CAG myeloma (left) and 293 (right) cells infected with heparanase (Hepa), T5, or control empty vector (Vo) were grown in the absence (−) or presence (+) of heparin (50 μg/ml) under serum-free conditions. Total cell lysates were subjected to immunoblotting applying anti-heparanase 1453 (upper and second panels), anti-phospho-Src (p-Src, third panels), anti-Src (fourth panels) anti-phospho-Erk (p-Erk, fifth panels), and anti-Erk2 (sixth panels) antibodies. Src phosphorylation index was calculated by densitometry analysis of phosphorylated Src levels divided by the total Src values. Data is presented as average fold increase ±SE of Src phosphorylation compared with control, Vo cells, set arbitrary to a value of 1 (lower panels) of five independent experiments. B. Gene silencing. Parental 293 cells were transfected with anti-heparanase, anti-T5, or control siRNAs. Total RNA was extracted and RT-PCR analysis was performed applying T5 (upper panel), heparanase (Hepa, second panel) and GAPDH (third panel) specific primers. Corresponding cell lysates were subjected to immunoblotting applying phospho-Src (p-Src, fourth panel), Src (fifth panel), phospho-Erk (p-Erk, sixth panel) and Erk2 (seventh panel) antibodies. Src phosphorylation index was calculated as above and is shown graphically in the lower panel. […]
In general terms: A western blot detects proteins with antibodies after separation by electrophoresis.

The next assay relates to Src. The assay can be described thus: Src phosphorylation (immunoblot, densitometry) in 293 cells. Type of assay: cell-based, human. Conditions: over expressing 293 cells, serum-free. Here is the method: as §1, with “(-)” for “(−)”, “Data is presented as average fold increase ±SE of Src phosphorylation compared with control, Vo cells, set arbitrary to a value of 1 (lower panels) of five independent experiments.” left out, “panel. Note decreased Src phosphorylation levels upon T5 down regulation.” for “panel.”

B1: T5: novel splice variant of heparanase; truncated, enzymatically inactive 169 amino acid protein (protein, listed as Homo sapiens)
chain: MLLRSKPALPPPLMLLLLGPLGPLSPGALPRPAQAQDVVDLDFFTQEPLHLVSPSFLSVTIDANLATDPRFLILLGSPKLRTLARGLSPAYLRFGGTKTDFLIFDPKKESTFEERSYWQSQVNQDICKYGSIPPDVEEKLRLEWPYQEQLLLREHYQKKFKNSTYSSKK
For the molecule B1, the “pericytes associated with blood vessels (smooth muscle actin)” value in the assay on CAG myeloma cells (CAG xenografts, immunohistochemistry) is “significantly increased number of pericytes”. Moreover, the “average weight of xenografts” value in the assay on CAG myeloma cells (day 37, subcutaneous infected CAG cells, control 58±11 mg) turned out to be 738 ± 114 mg. Moreover, in the assay on CAG myeloma cells (subcutaneous infected CAG cells), the “development of tumor xenografts after day 21 vs control cells” value is “markedly enhanced”. In addition, the “heparin binding of protein in cell lysates” value in “Binding to heparin beads” was “failed to bind heparin”. In the assay with Concanavalin A, the “interaction with the lectin Concanavalin A” value is on record as “retained”. The “Erk phosphorylation upon over expression” value with Erk is “not affected”. Besides, in the assay with Src, the “Src phosphorylation enhancement vs control Vo cells” value is on record as approximately 4 fold.
